Reference: publication doi:10.1101/2023.05.08.539884
Like-named read-outs stand apart in the source and are kept apart here.

Tests used:
[1] = molecular target: UBR4_(4730-5183) (human) (UniProt Q5T4S7); test: ITC
[2] = molecular target: UBR4_(4730-5183) (human) (UniProt Q5T4S7); test: ITC; remark: listed apart in the source

UBR4_(4730-5183) (human), sequence (Q5T4S7 4730-5183): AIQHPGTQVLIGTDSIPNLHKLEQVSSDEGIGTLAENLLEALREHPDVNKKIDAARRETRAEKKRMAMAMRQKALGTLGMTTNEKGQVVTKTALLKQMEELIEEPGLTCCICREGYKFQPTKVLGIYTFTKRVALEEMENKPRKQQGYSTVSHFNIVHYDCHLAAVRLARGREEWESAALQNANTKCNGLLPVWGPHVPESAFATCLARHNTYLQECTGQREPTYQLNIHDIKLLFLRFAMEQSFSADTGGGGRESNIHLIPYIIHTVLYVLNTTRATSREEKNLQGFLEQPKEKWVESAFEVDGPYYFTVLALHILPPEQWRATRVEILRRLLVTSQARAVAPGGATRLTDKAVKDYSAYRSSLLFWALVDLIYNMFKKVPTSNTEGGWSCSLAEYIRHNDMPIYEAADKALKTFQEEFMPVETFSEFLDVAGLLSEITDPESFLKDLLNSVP
UBE2A, sequence (P49459 whole entry): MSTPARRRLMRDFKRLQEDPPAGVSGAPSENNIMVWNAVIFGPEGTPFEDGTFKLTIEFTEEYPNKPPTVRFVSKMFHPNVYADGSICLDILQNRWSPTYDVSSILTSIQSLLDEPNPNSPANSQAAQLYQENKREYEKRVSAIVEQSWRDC

dH [1]: -7.37 kcal/mol | stoichiometry N [1]: 0.904 | stoichiometry N [2]: 1
Substance: UBE2A (from UniProt P49459 1-152) (enzyme)
